This passage reports collision cross section results from the supplement of paper PMC10598134.

The data set can be described thus: collision cross section of modified peptide (TIMS, N2, iRT-aligned); higher = larger / more extended gas-phase ion. How it is done:
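1/K0 was aligned run-wise to spiked iRT peptides and converted to CCS in N2 (Mason-Schamp). Values are the mean of 1-3 technical replicates for the most abundant feature at each charge state.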

Setting [1] is: charge state: 2, modification: Glutarylation.
Setting [2] is: charge state: 3, modification: Glutarylation.
Where [3] appears, read: charge state: 2, modification: Crotonyl.
Setting [4] is: charge state: 2, modification: GlyGly (K).
[5] abbreviates: charge state: 3, modification: GlyGly (K).
[6] abbreviates: charge state: 2, modification: Butyryl.
Setting [7] is: charge state: 2, modification: Nitro (Y).
Setting [8] is: charge state: 3, modification: Malonyl.
The mark [9] stands for this setting: charge state: 3, modification: Butyryl.
Where [10] appears, read: charge state: 2, modification: Formyl.
[11] abbreviates: charge state: 2, modification: Succinyl.
The mark [12] stands for this setting: charge state: 3, modification: Crotonyl.

± gives the standard deviation.

“AGQKLIDVNHYAK [_AGQK(Gluratylation)LIDVNHYAK_]”: the collision cross section by setting is: under setting [1], 437.49 ± 0.96 Å²; under setting [2], 489.6 ± 0.95 Å².

As to “SLFFGGKGAPLQR [_SLFFGGK(Crotonyl)GAPLQR_]”, the collision cross section under setting [3] came out at 404.03 ± 0.35 Å².

Take “PASGAGAGAGAGKR [_PASGAGAGAGAGK(GlyGly (K))R_]”: the collision cross section is on record as 395.09 ± 1.4 Å² under setting [4] and 472.77 ± 1.1 Å² under setting [5].

In the case of IGNSYFKEEK [_IGNSYFK(Butyryl)EEK_], the collision cross section under setting [6] is 377.97 ± 0.72 Å².

Sequence YTAQVDAEEK [_Y(Nitro (Y))TAQVDAEEK_] showed a collision cross section under setting [7] of 358.81 ± 0.55 Å².

For “TQDQISNIKYHEEFEK [_TQDQISNIK(Malonyl)YHEEFEK_]”, under setting [8], the collision cross section worked out at 548.96 ± 0.016 Å².

The sequence “AAINQKLIETGER [_AAINQK(GlyGly (K))LIETGER_]” gave a collision cross section under setting [4] of 412.96 ± 0.98 Å² and a collision cross section under setting [5] of 477.22 ± 1.3 Å².

Consider “SITHSTVGSKGEK [_SITHSTVGSK(Gluratylation)GEK_]”, for which the collision cross section is given as 400.44 ± 2.1 Å² under setting [1] and 444.81 ± 2 Å² under setting [2].

For “PANEKATDDYHYEK [_PANEK(GlyGly (K))ATDDYHYEK_]”, the collision cross section was 439.63 ± 1.2 Å² under setting [4] and 506.82 ± 0.35 Å² under setting [5].

In turn, “GEPGIPAIPGIR [_GEPGIP(Hydroxyproline)AIPGIR_]” displayed a collision cross section (charge state: 2, modification: Hydroxyproline) of 346.11 ± 0.79 Å².

On to DFDTALKHYDK [_DFDTALK(Butyryl)HYDK_], for which the collision cross section runs as follows: under setting [6], 408.66 ± 0.23 Å²; under setting [9], 465.65 ± 2.9 Å².

In the case of IPQEKCILQTDVK [_IPQEK(Formyl)CILQTDVK_], the collision cross section under setting [10] is reported as 427.41 Å².

“DYSAPVNFISAGLKK [_DYSAPVNFISAGLK(Formyl)K_]”: the collision cross section under setting [10] amounted to 433.25 ± 0.72 Å² and the collision cross section (charge state: 3, modification: Formyl) stood at 526.56 ± 0.68 Å².

For SSFAYKDQNENR [_SSFAYK(Butyryl)DQNENR_], the collision cross section came out at 402.63 ± 0.85 Å² under setting [6] and 462.59 ± 3.8 Å² under setting [9].

Turning to TLDEILQEKK [_TLDEILQEK(Succinyl)K_], under setting [11], the collision cross section was determined as 382.2 ± 5.9 Å².

Consider “HELQANCYEEVKDR [_HELQANCYEEVK(Malonyl)DR_]”, for which the collision cross section under setting [8] is 477.83 ± 2.4 Å².

As for “ALASIDSKLNQAK [_ALASIDSK(Gluratylation)LNQAK_]”, the collision cross section is given as 406.86 ± 0.54 Å² under setting [1] and 470.57 Å² under setting [2].

Under setting [10], AAINQKLIETGER [_AAINQK(Formyl)LIETGER_] showed a collision cross section of 399.86 ± 0.2 Å².

Consider “GTVPDDAVEALADSLGKK [_GTVPDDAVEALADSLGK(Crotonyl)K_]”, for which the collision cross section reads like this: under setting [3], 456.44 ± 0.38 Å²; under setting [12], 536.14 Å².

For the sequence “VGEFSGANKEK [_VGEFSGANK(hydroxyisobutyryl)EK_]”, the collision cross section worked out at 364.17 ± 0.9 Å² (charge state: 2, modification: hydroxyisobutyryl) and 444.77 Å² (charge state: 3, modification: hydroxyisobutyryl).

As for “IINEPTAAAIAYGLDKK [_IINEPTAAAIAYGLDK(Crotonyl)K_]”, the collision cross section worked out at 463.28 ± 1.3 Å² under setting [3] and 561.41 ± 1.2 Å² under setting [12].

With “DSINFLDHINGKK [_DSINFLDHINGK(Acetyl (K))K_]”, where the note is “charge state: 3, modification: Acetyl (K)”, the collision cross section is listed as 470.59 Å².

In the case of “GVEAVGSYAENQR [_GVEAVGSY(Nitro (Y))AENQR_]”, the collision cross section under setting [7] is 377.43 ± 0.17 Å² and the collision cross section (charge state: 3, modification: Nitro (Y)) is 473.04 ± 0.83 Å².

With “TPLTHALPGLSEQEGQK [_T(HexNAc (ST))PLTHALPGLSEQEGQK_]”, the collision cross section (charge state: 3, modification: HexNAc (ST)) stood at 513.42 ± 0.96 Å².

Consider “VDVEVPDVSLEGPEGKLK [_VDVEVPDVSLEGPEGK(Butyryl)LK_]”, for which, under setting [6], the collision cross section is 469.33 ± 0.49 Å².

As to “ITLSKHQNVQLPR [_ITLSK(Succinyl)HQNVQLPR_]”, the collision cross section is, setting by setting: under setting [11], 418.56 ± 0.53 Å²; (charge state: 3, modification: Succinyl) 485.89 ± 2 Å².

In turn, SKLLFSNTAAQK [_SK(Crotonyl)LLFSNTAAQK_] returned a collision cross section under setting [3] of 402.06 ± 0.79 Å².
